Results as given in doi:10.1101/2025.04.09.647959.
Where two headings read alike, the source gives them in different places.

B1: hCD40L-1 (LNA-T, 2'F-C) (XNA)
DNA: GGGAGGAGGAAGCGGAAAAAGCAGGTGTGAAAAGGACGTCAAACGACGTGACACACAGACGACACGCCCGA
modifications: all T are LNA-T; all C are 2'F-C; A and G ribo
B2: hCD40L-4 (LNA-T, 2'F-C) (XNA)
DNA: GGGAGGAGGAAGCGGACGATGAACAAGTTGAAAAGGAATTTAAACGAATTAACAACAGACGACACGCCCGA
modifications: all T are LNA-T; all C are 2'F-C; A and G ribo

Experiments:
[1] = target: T1, human CD40 ligand (hCD40L) (Homo sapiens, UniProt P29965 113-261); test: BLI
T1 sequence (P29965 113-261): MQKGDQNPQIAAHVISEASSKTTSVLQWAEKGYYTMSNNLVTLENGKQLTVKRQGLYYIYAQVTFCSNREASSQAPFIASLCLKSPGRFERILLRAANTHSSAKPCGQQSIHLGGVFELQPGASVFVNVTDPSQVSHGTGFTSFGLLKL

[2] = target: T1, human CD40 ligand (hCD40L); test: BLI; remark: listed apart in the source

Row | Binder | binding result [1] | binding result [2]
1 | B1 | binds | –
2 | B2 | – | binds
